Results on 52 sequences are retold here after the supplement of paper PMC10567573.

This data set is described as follows: protein stability index of a GFP-peptide fusion (GPS, HEK-293T) (PSI 1-6); higher = more stable.
The mark [1] stands for this setting: treatment: DMSO, c terminus: a fixed tail appended.
[2] abbreviates: treatment: MLN4924 1 uM, 8 h, c terminus: a fixed tail appended.

± gives the standard deviation.
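Note: 24-mer peptide tiles fused after GFP, lentivirally expressed, FACS-sorted into six equal bins by GFP/DsRed ratio, decoded by Illumina sequencing, PSI is the read-weighted mean bin number.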

In turn, SVDIVSSHWDLNHTHPSACQGQRL [PLD5] showed a protein stability index under setting [1] of 3.64 ± 0.16 and a protein stability index under setting [2] of 3.82 ± 0.086.
For EEREEGPPRIPQADQWKSSNKSLV [RHOBTB1] the same measures were 4.99 ± 0.22 and 5.08 ± 0.29.
With LKEPLHKALQMLLSQPVTYQAFRE [BCL2L13], the protein stability index was 2.76 ± 0.085 under setting [1] and 2.77 ± 0.4 under setting [2].
For RSPYAGLQLGAAKKPPVTFAEKGE [TRIM29] the same measures were 4.09 ± 0.22 and 4.26 ± 0.2.
For RMLHRSTQTTNDGVCQSMCHDKYT [ZMYND11] the same measures were 3.94 ± 0.18 and 4.04 ± 0.32.
For IFHSRTSLQKLSTKLSAQSAQYSQ [FCHSD1] the same measures were 2.91 ± 0.17 and 2.98 ± 0.34.
For the sequence WHLKQSPASPERDYSPYYKTIEEL [KRT13], the protein stability index is, setting by setting: under setting [1], 3.26 ± 0.094; under setting [2], 3.29 ± 0.26.
For MLYAKPPPTINGIKGLQRKERLKP [KRT34] the same measures were 3.1 ± 0.28 and 3.43 ± 0.19.
For LCLDLAPSETGNTFVSGGCDKKAM [GNB5] the same measures were 3.96 ± 0.15 and 4.02 ± 0.17.
For QSLPCTERKPAATARLSRRGTSLS [KISS1] the same measures were 4.71 ± 0.2 and 4.66 ± 0.32.
For the sequence NNIKFKKSSILTRAGEQRKRSQSM [CLCN6], the protein stability index under setting [1] stood at 4.06 ± 0.41 and the protein stability index under setting [2] came out at 4.39 ± 0.1.
As to CEKRCSYCNFNKYIPRRLEEAAMQ [RSAD1], the protein stability index by setting is: under setting [1], 2.4 ± 0.028; under setting [2], 2.6 ± 0.31.
In the case of WFSLASVIFLLLFAPFIVYYFIMA [DHCR7], the protein stability index is, setting by setting: under setting [1], 2.27 ± 0.53; under setting [2], 2.34 ± 0.44.
Take LSLASLLVYVAAFSIGLGPMPWLV [SLC2A12]: the protein stability index was determined as 2.93 ± 0.37 under setting [1] and 2.79 ± 0.68 under setting [2].
For HPEVKCVGSVALTALVTVSSEEFE [C8orf76] the same measures were 3.27 ± 0.19 and 3.31 ± 0.52.
Take ATLICMAMQASKATKITLSAIYKW [FOXJ1]: the protein stability index by setting is: under setting [1], 3.15 ± 0.48; under setting [2], 2.92 ± 0.71.
With LGIGMDSCVIPLRHGGLSLVQTTD [SEPHS2], the protein stability index reads like this: under setting [1], 2.8 ± 0.33; under setting [2], 2.98 ± 0.4.
For IRKTVKRLRKHQHVGDFARDLAAR [ELOA2] the same measures were 3.6 ± 0.23 and 3.69 ± 0.23.
For AKAQVRKAVQYEEKNPCRTLCCFC [STX11] the same measures were 2.97 ± 0.24 and 3.36 ± 0.54.
ADSLDFDETFLATSFLQHPWDESG [FOXJ1]: the protein stability index was found to be 4.22 ± 0.087 under setting [1] and 4.08 ± 0.13 under setting [2].
In the case of RLHHPHKSVQHVVLQALFYLLDRA [PTPN9], the protein stability index came to 2.28 ± 0.21 under setting [1] and 2.13 ± 0.36 under setting [2].
For NPALEGLTQPLQGGTPHCEPCQLP [DNAAF3] the same measures were 4.89 ± 0.36 and 4.97 ± 0.24.
For GKGFRDRNVTGTPLTGDKDDEEVD [ADAMTSL2] the same measures were 5.59 ± 0.21 and 5.51 ± 0.34.
For AGNSSRNSSQSSSDGSCKTAGEMV [BTBD10] the same measures were 5.16 ± 0.35 and 5.14 ± 0.22.
As for NNYRLGGNPSTNSRVTASSGITIP [SMARCE1], the protein stability index turned out to be 3.64 ± 0.3 under setting [1] and 3.54 ± 0.38 under setting [2].
With SDSGKDLPEPSKRGPPHGWPKLCP [MYCL], the protein stability index stood at 4.27 ± 0.1 under setting [1] and 4.63 ± 0.078 under setting [2].
For GAIFCPPCYDVRYAPSCAKCKKKI [PDLIM7] the same measures were 3.16 ± 0.24 and 3.45 ± 0.34.
For YLLHPAAFHGAPSHLPTRSPSFPE [TBX6] the same measures were 2.49 ± 0.28 and 2.87 ± 0.26.
For VIHRALDREQVSSYNITVTATDGG [PCDHGA10] the same measures were 3.27 ± 0.23 and 3.14 ± 0.28.
Take GGKYLGRTKVVKPYSTVDNPVYYG [EFHC1]: the protein stability index came to 2.87 ± 0.33 under setting [1] and 2.97 ± 0.33 under setting [2].
For GRLYVHPDSPATGAHWMRQLVSFQ [TBX5] the same measures were 2.32 ± 0.26 and 2.34 ± 0.2.
Consider RPRQRQRVYPKCTWLTTPKSTWPR [TCF25], for which the protein stability index is 3.17 ± 0.43 under setting [1] and 3.23 ± 0.2 under setting [2].
With LALRQGVEADINGLRRVLDELTLA [KRT15], the protein stability index by setting is: under setting [1], 2.51 ± 0.26; under setting [2], 2.65 ± 0.4.
QHLPAQEQWDRLLVLYPTSLAIFS [PLEKHN1]: the protein stability index is 2.55 ± 0.53 under setting [1] and 2.6 ± 0.59 under setting [2].
For TSPWSECTKTCGVGVRMRDVKCYQ [ADAMTSL2], the protein stability index under setting [1] came out at 2.81 ± 0.21 and the protein stability index under setting [2] turned out to be 2.44 ± 0.38.
For YIATQGSLPETFGDFWRMIWEQRS [PTPRD] the same measures were 2.21 ± 0.21 and 2.5 ± 0.55.
For ERPAQRDCSFPGLPRHQDQPHHQP [TRAF3IP2] the same measures were 4.72 ± 0.15 and 4.64 ± 0.28.
For AWNPEDRSLNVFVKDDDRLTFHRH [SPSB4] the same measures were 3.65 ± 0.27 and 3.76 ± 0.19.
KMEIYQKENKDVIQKNKLKLTREQ [MNAT1]: the protein stability index was found to be 3.89 ± 0.41 under setting [1] and 4.16 ± 0.34 under setting [2].
For LLVQFVCQEYLARNARIVHLVEET [CPXM2] the same measures were 3.82 ± 0.26 and 2.63 ± 0.95.
For LRKYSFDGLDLDWEYPGSQGSPAV [CHIT1] the same measures were 2.32 ± 0.23 and 2.61 ± 0.38.
For RYDPEPKSKWDEEWDKNKSAFPFS [CLINT1], the protein stability index reads like this: under setting [1], 3.84 ± 0.36; under setting [2], 3.89 ± 0.21.
For IFCLHGGLSPSIDTLDHIRALDRL [PPP2CA] the same measures were 2.29 ± 0.59 and 2.21 ± 0.17.
As to AFRALASAQCPQFGIPRKRLKQS [SPOPL], the protein stability index was determined as 2.74 ± 0.19 (treatment: DMSO, c terminus: native) and 2.83 ± 0.16 (treatment: MLN4924 1 uM, 8 h, c terminus: native).
With DEQEKGIVTKFYQLSATGQKLYVR [FAN1], the protein stability index by setting is: under setting [1], 2.92 ± 0.22; under setting [2], 2.94 ± 0.54.
For VCKGLPQHEEICLGLFTLILTEPA [INTS3] the same measures were 2.53 ± 0.47 and 2.5 ± 0.48.
Consider ALGILIFEMLSGFPPFFDDNPFGI [PRKX], for which the protein stability index turned out to be 3.11 ± 1.7 under setting [1] and 3.31 ± 0.25 under setting [2].
For the sequence APPPADSAPQQNGQPLRPLVPDAS [PDLIM7], the protein stability index by setting is: under setting [1], 5.27 ± 0.12; under setting [2], 5.37 ± 0.13.
For IDEVLLHQDVDLVCINLPPPLTRQ [GFOD1] the same measures were 2.83 ± 0.38 and 2.98 ± 0.43.
For GKPLAGIYRKREEKRNAGNAVRSA [KMT5A] the same measures were 4.24 ± 0.35 and 4.39 ± 0.19.
For the sequence EDTSNDESSILGTDIDLQTIDNDI [M1AP], the protein stability index came out at 5.56 ± 0.093 under setting [1] and 5.56 ± 0.18 under setting [2].
For DDSKFPIEDTPLVPVSFIFIFTFV [PCDHGA10] the same measures were 3.32 ± 0.36 and 2.09 ± 0.062.
